Data: patent publication US20170173105A1, “AUTOASSEMBLING PEPTIDES FOR THE TREATMENT OF PULMONARY LEAKAGE” (3-D MATRIX, LTD., priority 2014, published 2017)

Legend:
Assay type in all cases: physicochemical
[1] = pH and appearance of 2.5% peptide solutions after adding 0.1 N NaOH
Experimental: To adjust the pH level of the peptide solutions by way of example, 0.1 N NaOH was added to 2 mL of 2.5% peptide solutions and their pH and appearance were measured.

[2] = Gelation of peptide solutions on saline buffer treatment (time sweep); conditions: saline buffer (0.15 M of NaCl); IEIK13 1.5%, KLD12 1.5%, PuraMatrix 2.5%
Experimental: The effect of salt ionic strength level surrounding peptide solution on the properties of peptide solutions was evaluated to identify the possibility of peptide gelation when the peptide solution is placed into the environment where salt ionic strength level is high. […] Without pH effect, the effect of saline treatment on gelation of peptide solutions were evaluated. […] This is because IEIK13 is much more sensitive to salt ionic strength levels. Fast gelation of IEIK13 at the salt ionic strength level similar to body fluid isotonic salt level may generally improve its function and gelation speed for various clinical applications. The results are shown in FIG. 19 for IEIK13, KLD12 and PuraMatrix® solutions. Time sweep tests were performed at 1 rad/sec and at 1 Pa with 20 mm plates and 500 μm gap distance. […]

[3] = Appearance of 1.5% peptide solutions with various salts at room temperature; conditions: for Appearance: IEIK13 solution, room temperature
Experimental: The effect of salt ionic strength level on the properties of peptide solutions was evaluated to identify optimized salt ionic strength levels for the peptides as described herein. Increasing the salt ionic strength level of PuraMatrix® and other peptides may generally improve its function and mechanical strength for various clinical applications. To adjust the salt ionic strength of the peptide solutions by way of example, various salt buffer solutions including NaCl, KCl, MgCl2, CaCl2 and DPBS (10×) were added to 2 mL of 1.5% peptide solutions.

[4] = 0.1 N NaOH 0 μL/mL added in 2.5% solution, conc. 2.5%
[5] = 0.1 N NaOH 50 μL/mL added in 2.5% solution, conc. 2.38%
[6] = 0.1 N NaOH 100 μL/mL added in 2.5% solution, conc. 2.27%
[7] = 0.1 N NaOH 350 μL/mL added in 2.5% solution, conc. 1.85%
[8] = pH increase up to approximately 3.5 or less with 0.1 N NaOH, 2.5% solutions

With “Ile-Glu-Ile-Lys-Ile-Glu-Ile-Lys-Ile-Glu-Ile-Lys-Ile [IEIK13]” the Appearance [1, 4] was “Clear, thick gel”, the “Peptide solution pH” value [1, 4] was 1.8 and the Appearance [1, 5] was “Clear, thick gel”. The “Peptide solution pH” value [1, 5] was 2.1, the Appearance [1, 6] was “Clear, thick gel” and the “Peptide solution pH” value [1, 6] was 2.2. For the same substance, the “Peptide solution pH” value ([1]; 0.1 N NaOH 150 μL/mL added in 2.5% solution, conc. 2.17%) was 2.7, the “Peptide solution pH” value ([1]; 0.1 N NaOH 200 μL/mL added in 2.5% solution, conc. 2.08%) was 3.0 and the “Peptide solution pH” value ([1]; 0.1 N NaOH 250 μL/mL added in 2.5% solution, conc. 2.0%) was 3.3. For the same substance, the “Peptide solution pH” value ([1]; 0.1 N NaOH 275 μL/mL added in 2.5% solution, conc. 1.96%) was 3.7, the “Peptide solution pH” value ([1]; 0.1 N NaOH 300 μL/mL added in 2.5% solution, conc. 1.92%) was 4.0 and the Appearance [1, 7] was “Cloudy, brittle gel”. The “Peptide solution pH” value [1, 7] was 4.5, the “Peptide solution pH” value ([1]; 0.1 N NaOH 400 μL/mL added in 2.5% solution, conc. 1.79%) was 5.4 and the “Peptide solution pH” value ([1]; last line per peptide, NaOH volume and conc. not given) was 7.0. For the same substance, the “apparent stiffness on pH increase” value [1, 8] was “increased”, the “color of solution on pH increase” value [1, 8] was “did not change the clear color” and the “gelation after saline buffer treatment” value [2] was “fast gelation”. The Appearance ([3]; CaCl2 0 M, ionic strength 0 M, conc. 1.5%) was “Clear, thick gel”, the Appearance ([3]; CaCl2 0.005 M, ionic strength 0.015 M, conc. 1.46%) was “Clear, thick, stiffer gel” and the Appearance ([3]; CaCl2 0.0067 M, ionic strength 0.02 M, conc. 1.45%) was “Clear, thick, stiffer gel”. The Appearance ([3]; CaCl2 0.0083 M, ionic strength 0.025 M, conc. 1.44%) was “Clear, thick, stiffer gel”, the Appearance ([3]; CaCl2 0.01 M, ionic strength 0.03 M, conc. 1.43%) was “Clear, thick, stiffer gel” and the Appearance ([3]; CaCl2 0.0117 M, ionic strength 0.035 M, conc. 1.41%) was “Clear, thick, stiffer gel”. For the same substance, the Appearance ([3]; CaCl2 0.0133 M, ionic strength 0.04 M, conc. 1.40%) was “Slightly cloudy, thick, stiffer gel”, the Appearance ([3]; CaCl2 0.015 M, ionic strength 0.045 M, conc. 1.39%) was “Slightly cloudy, thick, stiffer gel” and the Appearance ([3]; CaCl2 0.0167 M, ionic strength 0.05 M, conc. 1.37%) was “Slightly cloudy, brittle gel”. For the same substance, the Appearance ([3]; CaCl2 0.0183 M, ionic strength 0.055 M, conc. 1.36%) was “Cloudy, phase-separated”, the Appearance ([3]; KCl 0 M, ionic strength 0 M, conc. 1.5%) was “Clear, thick gel” and the Appearance ([3]; KCl 0.005 M, ionic strength 0.005 M, conc. 1.46%) was “Clear, thick, stiffer gel”. For the same substance, the Appearance ([3]; KCl 0.01 M, ionic strength 0.01 M, conc. 1.43%) was “Clear, thick, stiffer gel”, the Appearance ([3]; KCl 0.015 M, ionic strength 0.015 M, conc. 1.39%) was “Clear, thick, stiffer gel” and the Appearance ([3]; KCl 0.02 M, ionic strength 0.02 M, conc. 1.35%) was “Clear, thick, stiffer gel”. The Appearance ([3]; KCl 0.025 M, ionic strength 0.025 M, conc. 1.31%) was “Clear, thick, stiffer gel”, the Appearance ([3]; KCl 0.03 M, ionic strength 0.03 M, conc. 1.27%) was “Clear, thick, stiffer gel” and the Appearance ([3]; KCl 0.035 M, ionic strength 0.035 M, conc. 1.24%) was “Slightly cloudy, brittle gel”. For the same substance, the Appearance ([3]; KCl 0.04 M, ionic strength 0.04 M, conc. 1.2%) was “Slightly cloudy, brittle”, the Appearance ([3]; KCl 0.045 M, ionic strength 0.045 M, conc. 1.16%) was “Cloudy, phase-separated” and the Appearance ([3]; MgCl2 0 M, ionic strength 0 M, conc. 1.5%) was “Clear, thick gel”. For the same substance, the Appearance ([3]; MgCl2 0.005 M, ionic strength 0.015 M, conc. 1.46%) was “Clear, thick, stiffer gel”, the Appearance ([3]; MgCl2 0.0067 M, ionic strength 0.02 M, conc. 1.45%) was “Clear, thick, stiffer gel” and the Appearance ([3]; MgCl2 0.0083 M, ionic strength 0.025 M, conc. 1.44%) was “Clear, thick, stiffer gel”. The Appearance ([3]; MgCl2 0.01 M, ionic strength 0.03 M, conc. 1.43%) was “Clear, thick, stiffer gel”, the Appearance ([3]; MgCl2 0.0117 M, ionic strength 0.035 M, conc. 1.41%) was “Clear, thick, stiffer gel” and the Appearance ([3]; MgCl2 0.0133 M, ionic strength 0.04 M, conc. 1.40%) was “Slightly cloudy, thick, stiffer gel”. The Appearance ([3]; MgCl2 0.015 M, ionic strength 0.045 M, conc. 1.39%) was “Slightly cloudy, stiffer gel”, the Appearance ([3]; MgCl2 0.0167 M, ionic strength 0.05 M, conc. 1.37%) was “Slightly cloudy, brittle gel” and the Appearance ([3]; MgCl2 0.0183 M, ionic strength 0.055 M, conc. 1.36%) was “Cloudy, phase-separated”. For the same substance, the Appearance ([3]; NaCl 0 M, ionic strength 0 M, conc. 1.5%) was “Clear, thick gel”, the Appearance ([3]; NaCl 0.005 M, ionic strength 0.005 M, conc. 1.46%) was “Clear, thick, stiffer gel” and the Appearance ([3]; NaCl 0.01 M, ionic strength 0.01 M, conc. 1.43%) was “Clear, thick, stiffer gel”. For the same substance, the Appearance ([3]; NaCl 0.015 M, ionic strength 0.015 M, conc. 1.39%) was “Clear, thick, stiffer gel”, the Appearance ([3]; NaCl 0.02 M, ionic strength 0.02 M, conc. 1.35%) was “Clear, thick, stiffer gel” and the Appearance ([3]; NaCl 0.025 M, ionic strength 0.025 M, conc. 1.31%) was “Clear, thick, stiffer gel”. The Appearance ([3]; NaCl 0.03 M, ionic strength 0.03 M, conc. 1.27%) was “Slightly cloudy, thick, stiffer gel”, the Appearance ([3]; NaCl 0.035 M, ionic strength 0.035 M, conc. 1.24%) was “Slightly cloudy, brittle gel” and the Appearance ([3]; NaCl 0.04 M, ionic strength 0.04 M, conc. 1.2%) was “Cloudy, phase-separated”. For the same substance, the “apparent stiffness on salt ionic strength increase” value ([3]; up to the ionic strength at which solutions stay clear) was “increased”.
